Laboratory results published in PMC10183829, “Shuffled ATG8 interacting motifs form an ancestral bridge between UFMylation and autophagy” (The EMBO Journal, 2023).

Experiments:
HsUFM1 = assay: Isothermal titration calorimetry, HsUFM1 titrated with HsC53wt; assay type: binding, Homo sapiens; settings: 40 μM HsUFM1 in cell, 300 or 550 μM HsC53wt in syringe
Method: (§1) All experiments were carried out at 25°C in 50 mM sodium phosphate buffer pH 7.0, 100 mM NaCl, using the PEAQ‐ITC Automated (Malvern Panalytical Ltd). For protein–protein interactions, the calorimetric cell was filled with either GABARAP or HsUFM1 and titrated with either HsC53 wt, HsC53 sAIM, HsC53 cAIM, or HsUBA5 LIR. A single injection of 0.4 μl of HsC53 or AtC53 IDRs (not taken into account) was followed by 18 injections of 2 μl each. Injections were made at 150‐s intervals with a duration of 4 s and a stirring speed of 750 rpm. The reference power was set to 10 μcal/s; the feedback mode was set to high. The raw titration data were integrated with NITPIC (Keller et al, [2012]), globally fitted with SEDPHAT (Zhao et al, [2015]), and plotted with GUSSI (Brautigam, [2015]).

GABARAP = assay: Isothermal titration calorimetry, GABARAP titrated with HsC53 variants; assay type: binding, human; settings: ITC, 25°C, 50 mM sodium phosphate pH 7.0, 100 mM NaCl; GABARAP 40 or 70 μM in cell; global analysis of 5 titrations, hetero-association model A + B; read-out: KD, best-fit value (ITC, GABARAP)
Method: as §1

GST-ATG8A = assay: Microscopy-based on-bead protein-protein interaction assay, GST-ATG8A beads; assay type: binding, Arabidopsis thaliana; settings: 1 μM mCherry-tagged C53 (AtC53 variants per Appendix Fig S10A); normalized fluorescence; mean average; 3 replicates
Method: (§2) Glutathione‐Sepharose 4B bead slurry (Cytiva, average diameter 90 μm) was washed and diluted 10 times in HEPES buffer (25 mM HEPES pH 7.5, 150 mM NaCl, 1 mM DTT). The beads were then incubated for 30 min at 4°C (16 rpm horizontal rotation) with GST‐tagged bait proteins (2 μM of GST, GST‐FIP200 CD, GST‐ATG8A, GST‐GABARAP, GST‐AtUFM1, and GST‐HsUFM1). The beads were washed five times in 10 times the bead volume of HEPES buffer. The buffer was removed, and the beads were resuspended 1:20 in HEPES buffer. 10 μl of diluted beads was mixed with 20 μl of mCherry‐tagged binding partner at a concentration of 1.5 μM (0.5 μl bead slurry and 1 μM binding partner final concentrations) with or without competitor, as stated in the relative experiment. […]
(§3) From images acquired from a Zeiss LSM700 confocal microscope, the quantification of fluorescence was performed in ImageJ (Schindelin et al, [2012]) by drawing a line across each bead and taking the maximum gray value along the line. The maximum gray value for any given pixel represents the fluorescence intensity.
(§4) For images acquired from a Zeiss LSM800 confocal microscope, we used a custom Fiji Macro. […] In the end, the mean fluorescent intensities were exported out and used for quantification.
(§5) For each method, the fluorescence intensity was normalized against the mean of the control condition.

GST-GABARAP = assay: Microscopy-based on-bead protein-protein interaction assay, GST-GABARAP beads; assay type: binding, human; settings: 1 μM mCherry-tagged C53 (HsC53 variants per Appendix Fig S10B); normalized fluorescence; mean average; 3 replicates
Method: as §2, §3, §4, §5

[1] = test system: HsFIP200 Claw domain (CD); assay: Microscopy-based on-bead protein-protein interaction assay, GST-FIP200 CD beads; assay type: binding, Homo sapiens; settings: 1 μM HsC53 variant, 2 independent replicates containing 2 technical replicates
Method: as §2, §3, §4, §5

[2] = test system: GST-HsUFM1 / mCh-HsC53 interaction; assay: On-bead competition of the HsUFM1-HsC53 interaction; assay type: binding, Homo sapiens; settings: 1 μM HsC53; cAIM peptide 0-100 μM; UBA5 LIR peptide or GABARAP 100 μM
Method: as §2, §3, §4, §5

B1: HsC53^wt: recombinant Homo sapiens C53 (CDK5RAP3), wild type (protein)
chain: MEDHQHVPIDIQTSKLLDWLVDRRHCSLKWQSLVLTIREKINAAIQDMPESEEIAQLLSGSYIHYFHCLRILDLLKGTEASTKNIFGRYSSQRMKDWQEIIALYEKDNTYLVELSSLLVRNVNYEIPSLKKQIAKCQQLQQEYSRKEEECQAGAAEMREQFYHSCKQYGITGENVRGELLALVKDLPSQLAEIGAAAQQSLGEAIDVYQASVGFVCESPTEQVLPMLRFVQKRGNSTVYEWRTGTEPSVVERPHLEELPEQVAEDAIDWGDFGVEAVSEGTDSGISAEAAGIDWGIFPESDSKDPGGDGIDWGDDAVALQITVLEAGTQAPEGVARGPDALTLLEYTETRNQFLDELMELEIFLAQRAVELSEEADVLSVSQFQLAPAILQGQTKEKMVTMVSVLEDLIGKLTSLQLQHLFMILASPRYVDRVTEFLQQKLKQSQLLALKKELMVQKQQEALEEQAALEPKLDLLLEKTKELQKLIEADISKRYSGRPVNLMGTSL
modifications: left off: His6, N-terminal, state not stated
notes: recombinant Homo sapiens C53 (CDK5RAP3), wild type
B1 was tested, and the “Binding to UFM1 by ITC (in words)” value (HsUFM1) was “did not detect appreciable binding”.

B2: C53^cAIM: text label without species: HsC53^cAIM with GABARAP (ITC, beads), AtC53^cAIM with GST-ATG8 (protein)
chain: MEDHQHVPIDIQTSKLLDWLVDRRHCSLKWQSLVLTIREKINAAIQDMPESEEIAQLLSGSYIHYFHCLRILDLLKGTEASTKNIFGRYSSQRMKDWQEIIALYEKDNTYLVELSSLLVRNVNYEIPSLKKQIAKCQQLQQEYSRKEEECQAGAAEMREQFYHSCKQYGITGENVRGELLALVKDLPSQLAEIGAAAQQSLGEAIDVYQASVGFVCESPTEQVLPMLRFVQKRGNSTVYEWRTGTEPSVVERPHLEELPEQVAEDAWDGIDFGVEAVSEGTDSGISAEAAGWDGIIFPESDSKDPGGDGWDGIDDAVALQITVLEAGTQAPEGVARGPDALTLLEYTETRNQFLDELMELEIFLAQRAVELSEEADVLSVSQFQLAPAILQGQTKEKMVTMVSVLEDLIGKLTSLQLQHLFMILASPRYVDRVTEFLQQKLKQSQLLALKKELMVQKQQEALEEQAALEPKLDLLLEKTKELQKLIEADISKRYSGRPVNLMGTSL
In the case of B2, the Kd (GABARAP) is reported as 11.2 µM, the “Recruited more efficiently to GST-ATG8 than the respective C53 wild-type protein” value (GST-ATG8A) is reported as 22% and the “Recruited more efficiently to GST-GABARAP than the respective C53 wild-type protein” value (GST-GABARAP) is reported as 35%.

B3: HsC53^cAIM: HsC53^(IDWG267WDGI, IDWG292WDGI, IDWG310WDGI) (protein)
chain: MEDHQHVPIDIQTSKLLDWLVDRRHCSLKWQSLVLTIREKINAAIQDMPESEEIAQLLSGSYIHYFHCLRILDLLKGTEASTKNIFGRYSSQRMKDWQEIIALYEKDNTYLVELSSLLVRNVNYEIPSLKKQIAKCQQLQQEYSRKEEECQAGAAEMREQFYHSCKQYGITGENVRGELLALVKDLPSQLAEIGAAAQQSLGEAIDVYQASVGFVCESPTEQVLPMLRFVQKRGNSTVYEWRTGTEPSVVERPHLEELPEQVAEDAWDGIDFGVEAVSEGTDSGISAEAAGWDGIIFPESDSKDPGGDGWDGIDDAVALQITVLEAGTQAPEGVARGPDALTLLEYTETRNQFLDELMELEIFLAQRAVELSEEADVLSVSQFQLAPAILQGQTKEKMVTMVSVLEDLIGKLTSLQLQHLFMILASPRYVDRVTEFLQQKLKQSQLLALKKELMVQKQQEALEEQAALEPKLDLLLEKTKELQKLIEADISKRYSGRPVNLMGTSL
For B3, the “FIP200 interaction compared with C53 wild type (in words)” value [1] was “stronger interaction”.

B4: GABARAP: human ATG8 isoform GABARAP, used at 100 µM as competitor (protein)
chain: MKFVYKEEHPFEKRRSEGEKIRKKYPDRVPVIVEKAPKARIGDLDKKKYLVPSDLTVGQFYFLIRKRIHLRAEDALFFFVNNVIPPTSATMGQLYQEHHEEDFFLYIAYSDESVYGL
modifications: left off: GST, N-terminal, kept
For B4, the “Competition of the HsC53-HsUFM1 interaction (in words)” value [2] was “able to disrupt”.
